The source of these data is patent US20090074790A1, “Methods for measuring transforming growth factor beta (TGF-beta) receptor signaling activity and uses thereof” (priority 2004, published 2009).

This assay deals with TGFβ type I receptor (TβR-I) on human cells (human) (UniProt P36897). Description: cell-based or functional assay.
Sequence of TGFβ type I receptor (TβR-I) on human cells (human) (P36897 34-503): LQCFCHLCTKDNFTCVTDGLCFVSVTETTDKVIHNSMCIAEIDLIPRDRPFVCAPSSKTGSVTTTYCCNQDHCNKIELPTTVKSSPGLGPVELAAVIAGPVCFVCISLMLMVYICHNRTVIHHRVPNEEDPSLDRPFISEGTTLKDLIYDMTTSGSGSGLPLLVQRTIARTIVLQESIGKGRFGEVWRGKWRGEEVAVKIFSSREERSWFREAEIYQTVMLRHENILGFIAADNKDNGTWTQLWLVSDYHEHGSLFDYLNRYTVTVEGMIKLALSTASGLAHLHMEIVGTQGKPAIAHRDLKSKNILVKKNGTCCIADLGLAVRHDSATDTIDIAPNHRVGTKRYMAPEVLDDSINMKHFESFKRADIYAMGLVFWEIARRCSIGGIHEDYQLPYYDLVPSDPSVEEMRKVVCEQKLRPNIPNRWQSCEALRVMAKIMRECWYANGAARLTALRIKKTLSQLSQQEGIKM

The substance “TGFβ (exogenous, added to human keratinocyte cultures) (ligand)” registered a growth inhibition of human keratinocytes of 5 pM.
